pIC50: −log10 of the molar value. Positions of bridges follow the written chain, without caps; N, C: chain ends. No end group written: not given here.
Tests used:
hK2 [1] = target: T1, hK2 (Homo sapiens, UniProt P20151); experiment: Effect of the peptides on the enzyme activity of hK2 (chromogenic substrate S-2302); type: biochemical; details: for inhibition (percent inhibition of hK2): enzymatic activity of hK2, chromogenic substrate, 405 nm; for inhibition of hK2 enzyme activity: 0.17 μM hK2, 100-fold molar excess of peptide; for effect on the enzyme activity of hK2: incubation of hK2 with synthetic peptide (FIG. 2)
T1 construct: made in house
Experimental: “Inhibition”, as used in the present context, stands for an inhibitory action on the proteolytic activity of hK2.
(§1) The effect of the peptides on the enzyme activity of hK2 was studied by using the chromogenic substrate S-2302 (H-D-Pro-Phe-Arg-pNA). HK2 (0.17 μM) was incubated with a 100-1000-fold molar excess of synthetic peptides in 20 mM Tris-buffer pH 8.0 containing 0.1% BSA for 30 minutes at room temperature. After addition of the substrate to a final concentration of 0.2 mM the absorbance was monitored at 405 nm at 5-10 min intervals for 1 h on a Victor 1420 Multilabel fluorometer (PerkinElmer-Wallac, Turku, Finland)

human trypsin 1 = target: T2, human trypsin 1 (Homo sapiens, UniProt P07477); experiment: Specificity: effect on enzyme activity of human trypsin 1 (substrate S-2222); type: biochemical
T2 construct: made in house
Experimental: as §1
(§2) The specificity of the peptides was analyzed by studying their effect on the activity of other serine proteases including α-chylotrypsin, bovine trypsin, human trypsin 1, trypsin 2 and trypsin 3, urokinase, thrombin, plasmin, plasma kallikrein and PSA. The assay was as described above for hK2 except that the substrate for PSA and α-chymotrypsin was S-2586 (MeO-Suc-Arg-Pro-Tyr-pNA)(Chromogenix), S-2444 for urokinase, S-2238 for thrombin, S-2403 for plasmin, S-2302 for plasma kallikrein and that for various forms of trypsin was S-2222 (CO-Ile-Glu-(OR)-Gly-Arg-pNA)(Chromogenix).

hK2 [2] = target: T1, hK2; experiment: Cross-inhibition test: inhibition of phage binding to captured hK2 by synthetic peptides (IFMA); details: synthetic peptide 5 μM, FIG. 1
Experimental: The phage IFMA was performed essentially as described (Wu, Leinonen et al. 2000). In this assay, 50 ng of hK2 in 200 μL of assay buffer was captured onto wells coated with MAb 5E4. After washing, 2.5 μL of phage (10^8-10^9 infectious particles) and 200 μL assay buffer were added to wells. After incubation for 1 h, the wells were washed and filled with 200 μL of assay buffer containing 100 ng Eu-labeled anti-phage polyclonal antibody recognizing the M13 coat protein of the phage. After incubation for 60 min, the wells were washed 4 times, and enhancement solution (Perkin Elmer-Wallac) was added. The fluorescence was quantified with a Victor fluorometer in time resolved mode (Perkin Elmer-Wallac).
The relative binding sites of the peptides on hK2 were mapped by competition experiments with chemically synthesized and phage peptides. The protocol was based on the IFMA method described above except that phages and the synthetic peptides were reacted together with hK2. Briefly, each of the synthetic peptides at 5 μM concentration was added into the wells in which hK2 had been captured by MAb 5E4. After incubation for 30 min each phage was added. After 1 h incubation, the wells were washed and the assay was as described above for IFMA.

bovine trypsin = target: T3, bovine trypsin (Bos taurus, UniProt P00760); experiment: Specificity: effect on enzyme activity of bovine trypsin (substrate S-2222); type: biochemical
T3 construct: purchased Athens Research and Technology, Athens, Ga., USA
T3 sequence (P00760 24-246): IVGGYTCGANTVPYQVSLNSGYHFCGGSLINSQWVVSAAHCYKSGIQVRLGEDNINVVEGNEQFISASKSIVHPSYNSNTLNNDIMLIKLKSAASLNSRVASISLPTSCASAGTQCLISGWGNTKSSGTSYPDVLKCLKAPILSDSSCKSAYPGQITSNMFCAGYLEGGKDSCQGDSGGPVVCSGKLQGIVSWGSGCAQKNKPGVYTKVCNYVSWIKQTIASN
Experimental: as §1, §2

trypsin 3 = target: T4, trypsin 3 (Homo sapiens, UniProt P35030); experiment: Specificity: effect on enzyme activity of human trypsin 3 (substrate S-2222); type: biochemical
T4 construct: made in house
T4 sequence (P35030 1-304): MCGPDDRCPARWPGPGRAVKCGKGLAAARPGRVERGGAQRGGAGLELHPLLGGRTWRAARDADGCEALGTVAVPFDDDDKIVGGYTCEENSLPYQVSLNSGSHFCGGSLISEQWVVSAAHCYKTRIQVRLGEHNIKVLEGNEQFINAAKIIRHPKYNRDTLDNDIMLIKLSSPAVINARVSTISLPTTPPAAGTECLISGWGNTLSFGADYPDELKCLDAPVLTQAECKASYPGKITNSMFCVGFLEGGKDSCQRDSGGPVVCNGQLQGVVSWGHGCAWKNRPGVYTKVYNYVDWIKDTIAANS
Experimental: as §1, §2

plasmin = target: T5, plasmin (Homo sapiens, UniProt P00747); experiment: Specificity: effect on enzyme activity of plasmin (substrate S-2403); type: biochemical
T5 construct: Human plasmin, thrombin and plasma kallikrein were from Sigma; purchased Sigma
Experimental: as §1, §2

thrombin = target: T6, thrombin (Homo sapiens, UniProt P00734); experiment: Specificity: effect on enzyme activity of thrombin (substrate S-2238); type: biochemical
T6 construct: Human plasmin, thrombin and plasma kallikrein were from Sigma; purchased Sigma
Experimental: as §1, §2

urokinase = urokinase (Homo sapiens, UniProt P00749); experiment: Specificity: effect on enzyme activity of urokinase (substrate S-2444); type: biochemical
Experimental: as §1, §2

plasma kallikrein = target: T7, plasma kallikrein (Homo sapiens, UniProt P03952); experiment: Specificity: effect on enzyme activity of plasma kallikrein (substrate S-2302); type: biochemical
T7 construct: Human plasmin, thrombin and plasma kallikrein were from Sigma; purchased Sigma
Experimental: as §1, §2

α-chymotrypsin = experiment: Specificity: effect on enzyme activity of α-chymotrypsin (substrate S-2586); type: biochemical
Experimental: as §1, §2

trypsin 2 = target: T8, trypsin 2 (Homo sapiens, UniProt P07478); experiment: Specificity: effect on enzyme activity of human trypsin 2 (substrate S-2222); type: biochemical
T8 construct: made in house
Experimental: as §1, §2

PSA = target: T9, PSA (Homo sapiens, UniProt P07288); experiment: Specificity: effect on enzyme activity of PSA (substrate S-2586); type: biochemical
T9 construct: PSA was purified from human seminal plasma as described (Zhang et al. 1995); from tissue; host or cells: human seminal plasma
Experimental: as §1, §2

hK2 [3] = target: T1, hK2; experiment: Effect of the peptides on the enzyme activity of hK2 (chromogenic substrate S-2302); type: biochemical; details: S-2302 200 μM, 0.17 μM hK2, 0-400 μM peptide; read-out: IC50 for hK2 inhibition

T5 sequence (P00747 97-580 partner limits assumed): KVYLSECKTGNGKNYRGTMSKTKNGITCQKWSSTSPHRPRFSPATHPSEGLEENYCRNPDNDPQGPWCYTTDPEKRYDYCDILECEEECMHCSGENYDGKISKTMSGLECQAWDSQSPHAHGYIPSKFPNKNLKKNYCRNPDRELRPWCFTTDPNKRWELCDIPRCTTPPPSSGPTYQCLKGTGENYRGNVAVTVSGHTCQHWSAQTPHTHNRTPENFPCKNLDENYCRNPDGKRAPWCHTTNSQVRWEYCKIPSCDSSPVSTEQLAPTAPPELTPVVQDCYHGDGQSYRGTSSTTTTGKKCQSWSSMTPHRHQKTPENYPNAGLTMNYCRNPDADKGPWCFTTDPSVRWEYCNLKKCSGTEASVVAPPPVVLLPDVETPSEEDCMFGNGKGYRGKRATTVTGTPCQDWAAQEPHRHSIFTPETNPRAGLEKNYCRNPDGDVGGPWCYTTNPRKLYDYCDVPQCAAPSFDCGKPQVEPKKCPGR
T5 sequence (P00747 581-810 limits assumed): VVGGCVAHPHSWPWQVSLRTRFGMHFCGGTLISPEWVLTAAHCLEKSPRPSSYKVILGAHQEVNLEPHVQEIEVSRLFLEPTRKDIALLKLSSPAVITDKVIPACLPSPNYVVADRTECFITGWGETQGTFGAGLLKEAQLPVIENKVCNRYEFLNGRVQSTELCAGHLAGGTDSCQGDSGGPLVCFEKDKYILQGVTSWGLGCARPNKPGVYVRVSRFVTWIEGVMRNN
T8 sequence (P07478 24-247): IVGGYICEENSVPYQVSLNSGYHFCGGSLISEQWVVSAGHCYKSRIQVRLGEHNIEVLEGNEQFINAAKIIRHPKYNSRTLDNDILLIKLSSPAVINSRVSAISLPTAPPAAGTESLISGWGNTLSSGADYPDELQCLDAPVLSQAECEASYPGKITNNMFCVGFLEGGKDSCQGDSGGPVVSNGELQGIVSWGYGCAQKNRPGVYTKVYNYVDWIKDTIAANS
T7 sequence (P03952 20-390 partner limits assumed): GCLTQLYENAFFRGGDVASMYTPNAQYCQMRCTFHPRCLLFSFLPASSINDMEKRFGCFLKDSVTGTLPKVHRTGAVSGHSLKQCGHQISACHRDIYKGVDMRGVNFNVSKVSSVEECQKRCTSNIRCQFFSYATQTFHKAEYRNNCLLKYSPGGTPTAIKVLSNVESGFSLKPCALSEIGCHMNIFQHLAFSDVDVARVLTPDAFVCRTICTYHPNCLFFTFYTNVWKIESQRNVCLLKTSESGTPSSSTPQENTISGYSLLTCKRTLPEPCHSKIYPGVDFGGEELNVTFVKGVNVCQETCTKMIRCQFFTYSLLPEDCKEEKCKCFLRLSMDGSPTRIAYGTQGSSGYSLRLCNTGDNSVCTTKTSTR
T7 sequence (P03952 391-638 limits assumed): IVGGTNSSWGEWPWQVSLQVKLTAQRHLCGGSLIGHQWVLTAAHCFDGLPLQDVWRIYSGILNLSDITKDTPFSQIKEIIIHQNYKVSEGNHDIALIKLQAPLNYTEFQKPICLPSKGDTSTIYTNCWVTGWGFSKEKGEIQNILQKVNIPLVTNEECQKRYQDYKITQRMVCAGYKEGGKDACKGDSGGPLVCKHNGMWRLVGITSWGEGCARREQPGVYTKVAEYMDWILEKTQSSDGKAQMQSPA
T1 sequence (P20151 25-261): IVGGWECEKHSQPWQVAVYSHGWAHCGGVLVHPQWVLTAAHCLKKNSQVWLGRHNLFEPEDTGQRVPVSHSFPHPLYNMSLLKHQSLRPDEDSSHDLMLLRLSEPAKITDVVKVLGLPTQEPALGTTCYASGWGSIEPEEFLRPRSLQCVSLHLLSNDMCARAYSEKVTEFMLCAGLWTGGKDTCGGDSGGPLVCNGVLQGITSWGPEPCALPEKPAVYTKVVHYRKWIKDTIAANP
T9 sequence (P07288 25-261): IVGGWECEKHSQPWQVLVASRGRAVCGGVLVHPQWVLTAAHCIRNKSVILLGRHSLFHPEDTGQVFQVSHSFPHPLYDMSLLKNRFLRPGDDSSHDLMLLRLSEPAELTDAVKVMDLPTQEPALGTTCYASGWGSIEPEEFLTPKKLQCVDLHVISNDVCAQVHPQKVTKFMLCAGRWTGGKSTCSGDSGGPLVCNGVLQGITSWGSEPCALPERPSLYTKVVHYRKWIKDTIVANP

15 (GPARRPFPVTAG) [compound 15]
inhibition (percent inhibition of hK2) (hK2 [1]): 49%

31 (GPARRPFPVTAG) [compound 31]
inhibition (percent inhibition of hK2) (hK2 [1]): 58%

55 (SRFKVWWAAG) [compound 55]
inhibition (percent inhibition of hK2) (hK2 [1]): 79%

57 (SRFKVWWAAG) [compound 57]
inhibition (percent inhibition of hK2) (hK2 [1]): 27%

63 (SRFKVWWAAG) [compound 63]
inhibition (percent inhibition of hK2) (hK2 [1]): 78%

64 (SRFKVWWAAG) [compound 64]
inhibition (percent inhibition of hK2) (hK2 [1]): 85%

69 (SRFKVWWG) [compound 69]
inhibition (percent inhibition of hK2) (hK2 [1]): 79%

73 (SRFKVWWG) [compound 73]
inhibition (percent inhibition of hK2) (hK2 [1]): 82%

AARRPFPAPS [HK2p02]
effect on activity of human trypsin 1 (human trypsin 1): no inhibition
inhibition of the binding of the phage carrying the corresponding peptide (hK2 [2]): inhibited efficiently
effect on activity of bovine trypsin (bovine trypsin): no inhibition
effect on activity of human trypsin 3 (trypsin 3): no inhibition
inhibition of hK2 enzyme activity (hK2 [1]): slight inhibition
effect on the enzyme activity of hK2 (hK2 [1]): significant reduction
effect on activity of plasmin (plasmin): no inhibition
effect on activity of thrombin (thrombin): no inhibition
effect on activity of urokinase (urokinase): no inhibition
effect on activity of plasma kallikrein (plasma kallikrein): no inhibition
effect on activity of α-chymotrypsin (α-chymotrypsin): no inhibition
effect on activity of human trypsin 2 (trypsin 2): no inhibition
effect on activity of PSA (PSA): no inhibition

ARFKVWWAAG [SEQ ID NO 56, A, R ,F, K, V, W, W, A, A, G]
pIC50 (hK2 [3]): 5.66
type of inhibition of hK2 (hK2 [1]; Lineweaver-Burke Plot): competitive inhibitor

C3AARRPAPAPCG (CAARRPAPAPCG; disulfide 1-11 (inferred)) [BTK144-18c]
effect of cyclic peptides on hK2 protease activity (hK2 [1]; FIG. 3): slight inhibitory effect

CFRQGCWVIT [HK2p04]
effect on the enzyme activity of hK2 (hK2 [1]): did not show any effect

CYRMPTCMQRD [HK2p06]
inhibition of the binding of the phage carrying the corresponding peptide (hK2 [2]): inhibited efficiently
effect on the enzyme activity of hK2 (hK2 [1]): did not show any effect

FRTCLRSWACM [HK2p05]
inhibition of the binding of the phage carrying the corresponding peptide (hK2 [2]): not inhibited

PARRPFPVTA [HK2p03]
effect on activity of human trypsin 1 (human trypsin 1): no inhibition
inhibition of the binding of the phage carrying the corresponding peptide (hK2 [2]): inhibited efficiently
effect on activity of bovine trypsin (bovine trypsin): no inhibition
effect on activity of human trypsin 3 (trypsin 3): no inhibition
inhibition of hK2 enzyme activity (hK2 [1]): slight inhibition
effect on the enzyme activity of hK2 (hK2 [1]): significant reduction
effect on activity of plasmin (plasmin): no inhibition
effect on activity of thrombin (thrombin): no inhibition
effect on activity of urokinase (urokinase): no inhibition
effect on activity of plasma kallikrein (plasma kallikrein): no inhibition
effect on activity of α-chymotrypsin (α-chymotrypsin): no inhibition
effect on activity of human trypsin 2 (trypsin 2): no inhibition
effect on activity of PSA (PSA): no inhibition

SRFKVWWAAG-OH [HK2p01, SRFKVWWAAG]
effect on activity of human trypsin 1 (human trypsin 1): no inhibition
inhibition of the binding of the phage carrying the corresponding peptide (hK2 [2]): inhibited efficiently
effect on activity of bovine trypsin (bovine trypsin): no inhibition
effect on activity of human trypsin 3 (trypsin 3): no inhibition
inhibition of hK2 enzyme activity (hK2 [1]): slight inhibition
effect on the enzyme activity of hK2 (hK2 [1]): significant reduction
effect on activity of plasmin (plasmin): no inhibition
effect on activity of thrombin (thrombin): no inhibition
effect on activity of urokinase (urokinase): no inhibition
effect on activity of plasma kallikrein (plasma kallikrein): no inhibition
effect on activity of α-chymotrypsin (α-chymotrypsin): no inhibition
effect on activity of human trypsin 2 (trypsin 2): no inhibition
effect on activity of PSA (PSA): no inhibition
